From patent publication US20030224390A1, “Method of identifying conformation-sensitive binding peptides and uses thereof” (Karo Bio AB, priority 2000, published 2003)

Tests used:
ERβ = ERβ (Homo sapiens, UniProt Q92731); test: Phage ELISA fingerprint: peptide binding to immobilized ER β with modulator present (Table 14B); conditions: nafoxidine (10 μM)
ER α = biological target: T1, ER α (Homo sapiens, UniProt P03372); test: Phage ELISA fingerprint: peptide binding to immobilized ER α with modulator present (Table 14A); conditions: ICI 182,780 (1 μM)
T1 sequence (P03372 1-595): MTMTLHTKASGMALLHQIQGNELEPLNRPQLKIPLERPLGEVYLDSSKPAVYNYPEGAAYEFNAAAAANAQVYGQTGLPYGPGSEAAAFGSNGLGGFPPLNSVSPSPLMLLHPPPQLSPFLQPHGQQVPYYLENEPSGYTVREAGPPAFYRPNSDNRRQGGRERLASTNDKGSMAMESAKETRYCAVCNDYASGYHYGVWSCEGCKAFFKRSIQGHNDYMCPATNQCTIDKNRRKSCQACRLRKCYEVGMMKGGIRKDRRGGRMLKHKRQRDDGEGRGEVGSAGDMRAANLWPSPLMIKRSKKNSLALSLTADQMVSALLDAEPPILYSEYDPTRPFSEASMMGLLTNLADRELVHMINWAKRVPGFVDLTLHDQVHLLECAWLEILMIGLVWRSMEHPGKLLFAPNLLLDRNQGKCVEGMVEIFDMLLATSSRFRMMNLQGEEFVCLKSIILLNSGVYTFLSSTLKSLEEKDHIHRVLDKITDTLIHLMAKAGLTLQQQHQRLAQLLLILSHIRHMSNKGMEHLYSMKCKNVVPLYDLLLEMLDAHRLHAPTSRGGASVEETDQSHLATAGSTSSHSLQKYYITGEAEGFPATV

Chain of ERβ (Q92731 whole entry, species assumed): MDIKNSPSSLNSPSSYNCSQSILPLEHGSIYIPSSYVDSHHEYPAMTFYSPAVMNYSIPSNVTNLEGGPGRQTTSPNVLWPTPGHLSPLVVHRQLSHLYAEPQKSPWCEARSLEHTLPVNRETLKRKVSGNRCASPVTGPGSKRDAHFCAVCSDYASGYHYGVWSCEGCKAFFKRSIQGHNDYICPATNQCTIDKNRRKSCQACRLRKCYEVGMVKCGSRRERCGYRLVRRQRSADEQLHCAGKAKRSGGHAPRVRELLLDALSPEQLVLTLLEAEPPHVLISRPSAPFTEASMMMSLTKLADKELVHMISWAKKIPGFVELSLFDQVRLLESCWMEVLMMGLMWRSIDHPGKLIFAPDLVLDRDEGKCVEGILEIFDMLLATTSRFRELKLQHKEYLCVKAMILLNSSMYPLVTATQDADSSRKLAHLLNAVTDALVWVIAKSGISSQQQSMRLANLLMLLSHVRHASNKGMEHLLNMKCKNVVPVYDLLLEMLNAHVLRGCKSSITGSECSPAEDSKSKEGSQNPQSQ

Class Specific Fingerprint on ERβ: peptide binding, Nafoxidine present (ERβ): 5
Class Specific Fingerprint on ERα: peptide binding, ICI 182,780 present (ER α): 0
Sequence: SRLPPSVFSMCGSEVCLSR [9Tβ]
